The values below come from patent US8435786.

For the assay, the target named is Fas receptor (CD95) on mouse bone marrow cells (mouse) (UniProt P25446). As to the kind of experiment: cell-based or functional assay.
Fas receptor (CD95) on mouse bone marrow cells (mouse), sequence (P25446 22-327): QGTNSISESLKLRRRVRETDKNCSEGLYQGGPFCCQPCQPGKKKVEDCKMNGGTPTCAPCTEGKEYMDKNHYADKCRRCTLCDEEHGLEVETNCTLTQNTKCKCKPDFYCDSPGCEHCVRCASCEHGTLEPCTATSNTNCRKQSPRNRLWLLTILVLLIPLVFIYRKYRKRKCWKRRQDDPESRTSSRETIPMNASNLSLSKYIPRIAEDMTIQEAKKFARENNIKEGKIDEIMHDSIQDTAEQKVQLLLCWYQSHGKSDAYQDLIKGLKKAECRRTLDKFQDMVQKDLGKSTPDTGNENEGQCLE

streptavidin-FasL chimeric protein, sequence (P22629 37-163, change not shown): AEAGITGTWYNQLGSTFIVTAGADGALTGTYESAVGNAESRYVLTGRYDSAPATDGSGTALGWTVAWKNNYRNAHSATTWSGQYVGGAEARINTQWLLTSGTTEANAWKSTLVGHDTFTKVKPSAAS

In turn, “streptavidin-FasL chimeric protein (from UniProt P22629 37-163) (ligand)” had an apoptotic death of wBMC after 24 hours with FasL protein (annexin-V, 7AAD) (% of the cells) of 40; a clonogenic activity of STR cells at 500 ng/ml FasL protein of 26 % increase; a clonogenic activity of STR cells with FasL and inhibition of caspase-3 (DEVD) of 75 % increase; a clonogenic activity of lin- BMC (CFU assay) (% stimulation at ~500 ng/ml FasL) of 45.
